Patent US20040181033A1 (Amgen, published 2004)
Values belong to the binder of their own block, whether it stands above or below them.

Legend:
[1] = target: T1, recombinant mature myostatin (human, UniProt O14793 267-375); assay: cell-based or functional assay
T1 sequence (looked up): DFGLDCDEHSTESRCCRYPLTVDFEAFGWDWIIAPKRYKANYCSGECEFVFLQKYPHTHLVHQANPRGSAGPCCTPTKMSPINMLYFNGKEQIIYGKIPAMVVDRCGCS

[2] = target: T1, recombinant mature myostatin; assay: cell-based or functional assay; remark: listed apart in the source

IC50 (C2C12 pMARE-luc) [1]: ~83 nM
B1: recombinant human activin receptor IIB/Fc chimera (Fc fusion, UniProt Q13705 19-134, looked up, not shown: a dimerising Fc or GST)
chain: SGRGEAETRECIYYNANWELERTNQSGLERCEGEQDKRLHCYASWRNSSGTIELVKKGCWLDDFNCYDRQECVATEENPQVYFCCCEGNFCNERFTHLPEAGGPEVTYEPPPTAPT

IC50 (read off the curve) [2]: ~20 µM
Binder: QGHCTRWPWMCPPY [TN8-19 peptide]
